Measurements: patent US20100260765A1 (AstraZeneca / MedImmune, published 2010)

Tests used:
[1] = target: T1, soluble KDR extracellular domain (ECD) (Calbiochem) (human, UniProt P35968 20-764); assay: High Antigen ELISA, KDR coat 500 ng/mL, supernatant 1:6075
T1 construct: extracellular domain; Bought protein; also called KDR-ECD; VEGF Receptor 2 D1-7, Cat. #676490
Experimental: (§1) ELISA plates were coated with a greater amount of KDR (at 500 ng/mL) in comparison with the Limited Antigen Quantitation assay described below. Sample containing antibody (Ab) was titrated on the KDR-coated ELISA plates and was incubated overnight at 4° C. to allow Ab binding to approach equilibrium. Titration of Ab in sample covered a dilution range of 1:25 to 1:18,225. A standard curve of KDR-specific antibody of known concentration was used to define the linear range of the assay. Data within the linear range were used to derive the relative concentration of KDR-specific Ab in each titrated sample. The high KDR concentration and the overnight incubation limited the effect of Ab affinity, allowing quantitation of the relative amount of KDR-specific Ab present in each sample.

[2] = target: T1, soluble KDR extracellular domain (ECD) …; assay: High Antigen ELISA, KDR coat 500 ng/mL, supernatant 1:675
Experimental: as §1

[3] = target: T1, soluble KDR extracellular domain (ECD) …; assay: High Antigen ELISA, KDR coat 500 ng/mL, supernatant 1:18,225
Experimental: as §1

[4] = target: T1, soluble KDR extracellular domain (ECD) …; assay: High Antigen ELISA, KDR coat 500 ng/mL, supernatant 1:25
Experimental: as §1

[5] = target: T1, soluble KDR extracellular domain (ECD) …; assay: High Antigen ELISA, KDR coat 500 ng/mL, supernatant 1:2025
Experimental: as §1

[6] = target: T1, soluble KDR extracellular domain (ECD) …; assay: Limited Antigen ELISA, KDR coat 6.25 ng/mL, supernatant 1:25
Experimental: (§2) Samples containing one concentration of antibody (Ab) (1:25 dilution) were incubated overnight to allow Ab binding to approach equilibrium. The low antigen concentration limited the effect of antibody concentration, allowing ranking of the antibodies based on their relative affinity.

[7] = target: KDR endogenously expressed on human umbilical vein endothelial cells (HUVEC) (human, UniProt P35968 20-1356); assay: cell-based or functional assay
KDR endogenously expressed on human umbilical vein endothelial cells (HUVEC), sequence (P35968 20-1356): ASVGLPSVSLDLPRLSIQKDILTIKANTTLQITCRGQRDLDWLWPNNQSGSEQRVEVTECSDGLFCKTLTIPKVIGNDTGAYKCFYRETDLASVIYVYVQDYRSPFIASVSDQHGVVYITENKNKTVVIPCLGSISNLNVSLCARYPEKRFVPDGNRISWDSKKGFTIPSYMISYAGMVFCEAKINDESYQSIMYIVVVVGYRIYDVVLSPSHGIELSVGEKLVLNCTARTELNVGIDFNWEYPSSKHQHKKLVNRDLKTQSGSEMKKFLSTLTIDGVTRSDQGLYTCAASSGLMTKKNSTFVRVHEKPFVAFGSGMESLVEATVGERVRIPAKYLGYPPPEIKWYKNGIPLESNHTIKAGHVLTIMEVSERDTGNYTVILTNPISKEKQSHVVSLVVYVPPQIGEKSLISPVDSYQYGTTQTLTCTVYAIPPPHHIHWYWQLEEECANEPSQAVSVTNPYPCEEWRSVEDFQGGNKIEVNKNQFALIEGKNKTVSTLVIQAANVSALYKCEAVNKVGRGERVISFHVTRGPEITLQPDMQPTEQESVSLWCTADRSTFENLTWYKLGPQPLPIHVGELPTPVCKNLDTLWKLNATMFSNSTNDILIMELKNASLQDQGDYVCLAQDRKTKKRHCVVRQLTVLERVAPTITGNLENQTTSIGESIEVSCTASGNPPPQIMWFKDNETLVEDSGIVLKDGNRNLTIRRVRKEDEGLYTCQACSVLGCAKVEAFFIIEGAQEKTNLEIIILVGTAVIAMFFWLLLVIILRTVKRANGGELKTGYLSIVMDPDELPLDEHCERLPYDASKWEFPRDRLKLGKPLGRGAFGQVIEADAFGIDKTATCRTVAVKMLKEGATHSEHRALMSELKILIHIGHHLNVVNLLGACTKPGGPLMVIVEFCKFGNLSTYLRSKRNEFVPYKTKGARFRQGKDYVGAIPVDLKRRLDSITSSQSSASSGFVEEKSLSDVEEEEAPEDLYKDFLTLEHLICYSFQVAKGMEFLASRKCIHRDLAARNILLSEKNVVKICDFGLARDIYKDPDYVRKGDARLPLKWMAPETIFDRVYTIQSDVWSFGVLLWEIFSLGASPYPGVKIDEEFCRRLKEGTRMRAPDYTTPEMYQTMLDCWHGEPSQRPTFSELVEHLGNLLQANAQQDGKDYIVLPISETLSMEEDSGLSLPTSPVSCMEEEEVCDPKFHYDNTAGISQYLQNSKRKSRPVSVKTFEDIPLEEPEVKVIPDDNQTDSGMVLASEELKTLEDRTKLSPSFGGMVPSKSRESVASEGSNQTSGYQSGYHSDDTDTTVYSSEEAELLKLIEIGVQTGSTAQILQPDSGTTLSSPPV

[8] = target: T1, soluble KDR extracellular domain (ECD) …; assay: Limited Antigen ELISA, KDR coat 3.125 ng/mL, supernatant 1:25
Experimental: as §2

[9] = target: T1, soluble KDR extracellular domain (ECD) …; assay: Limited Antigen ELISA, KDR coat 12.5 ng/mL, supernatant 1:25
Experimental: as §2

[10] = target: T1, soluble KDR extracellular domain (ECD) …; assay: High Antigen ELISA, KDR coat 500 ng/mL, supernatant 1:225
Experimental: as §1

[11] = target: T1, soluble KDR extracellular domain (ECD) …; assay: Limited Antigen ELISA, KDR coat 50 ng/mL, supernatant 1:25
Experimental: as §2

[12] = target: T1, soluble KDR extracellular domain (ECD) …; assay: High Antigen ELISA, KDR coat 500 ng/mL, supernatant 1:75
Experimental: as §1

[13] = target: T1, soluble KDR extracellular domain (ECD) …; assay: Limited Antigen ELISA, KDR coat 25 ng/mL, supernatant 1:25
Experimental: as §2

T1 sequence (P35968 20-764): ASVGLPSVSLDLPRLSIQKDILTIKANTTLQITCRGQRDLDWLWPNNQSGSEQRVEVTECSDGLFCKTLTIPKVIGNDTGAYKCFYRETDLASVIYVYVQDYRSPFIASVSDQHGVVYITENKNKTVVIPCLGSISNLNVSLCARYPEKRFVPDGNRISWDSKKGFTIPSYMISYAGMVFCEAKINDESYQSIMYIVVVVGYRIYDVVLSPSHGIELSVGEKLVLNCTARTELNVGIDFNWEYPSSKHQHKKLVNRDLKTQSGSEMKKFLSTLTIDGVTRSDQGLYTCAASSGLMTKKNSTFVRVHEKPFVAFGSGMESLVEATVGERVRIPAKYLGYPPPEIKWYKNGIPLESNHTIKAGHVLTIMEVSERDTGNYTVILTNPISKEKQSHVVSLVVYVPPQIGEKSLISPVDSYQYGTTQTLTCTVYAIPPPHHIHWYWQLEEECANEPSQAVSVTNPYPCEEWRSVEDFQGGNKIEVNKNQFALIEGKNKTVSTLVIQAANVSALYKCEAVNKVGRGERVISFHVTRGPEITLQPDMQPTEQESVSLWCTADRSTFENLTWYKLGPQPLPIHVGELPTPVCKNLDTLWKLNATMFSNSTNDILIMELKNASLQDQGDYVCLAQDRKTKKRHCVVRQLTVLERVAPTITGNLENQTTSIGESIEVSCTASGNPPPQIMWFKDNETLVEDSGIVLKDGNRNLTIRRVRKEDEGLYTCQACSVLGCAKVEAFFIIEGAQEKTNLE

B1: 31E11 (antibody, V domains shown)
VH: QVQLVESGGGLVKPGGSLRLSCAASGFTFSDYYMSWIRQAPGKGLEWVSYISISGSTIYYADSVKGRFTISRDNAKNSLYLQMNSLRAEDTAVYYCARDDFWSGYYFNWFDPWGQGTLVTVSS
VL: DIQMTQSPSSLSASVGDRVTITCRANQTISTFLNWYQQNPGKAPKLLIYAASSLQSGVPSRFSGSGSGTDFTLTISSLQPEDFATYYCQQTYIIPLTFGGGTKVEIK
notes: Fully human mAb from XenoMouse hybridoma, tested as hybridoma supernatant
[1]
  ELISA reading: 0.62
[2]
  ELISA reading: 3.6
[3]
  ELISA reading: 0.31
[4]
  ELISA reading: 4.48
[5]
  ELISA reading: 1.81
[6]
  ELISA reading: 0.39
[7]
  VEGF-E-mediated Survival % Inhibition (Average): 55%
  VEGF-E-mediated Survival % Inhibition (n = 1): 56%
  VEGF-E-mediated Survival % Inhibition (n = 2): 54%
[8]
  ELISA reading: 0.2
[9]
  ELISA reading: 0.68
[10]
  ELISA reading: 4.61
[11]
  ELISA reading: 2.37
[12]
  ELISA reading: 6
[13]
  ELISA reading: 1.24

B2: 30F6 (antibody, V domains shown)
VH: QVQLVESGGGVVQPGRSLRLSCAASGFTFSTYGMHWVRQAPGKGLEWVAVIWYDGSNKYYADSVKGRFTISRDNSKNTLYLQMNSLRAEDTAVYYCACSYWNDDYYYGMDVWGQGTTVTVSS
VL: DIQMTQSPSSLSASVGDRVIITCRASQNISSYLIWYQQKPGKAPNLLIHTTSSLQRGVPSRFSGSGSGTDFTLTISSLQPEDFATYYCQQSYSAPLTFGGGTKVEIK
notes: as for B1
[1]
  ELISA reading: 0.16
[2]
  ELISA reading: 0.93
[3]
  ELISA reading: 0.09
[4]
  ELISA reading: 3.04
[5]
  ELISA reading: 0.35
[6]
  ELISA reading: 0.13
[7]
  VEGF-E-mediated Survival % Inhibition (Average): 37%
  VEGF-E-mediated Survival % Inhibition (n = 1): 31%
  VEGF-E-mediated Survival % Inhibition (n = 2): 43%
[8]
  ELISA reading: 0.1
[9]
  ELISA reading: 0.25
[10]
  ELISA reading: 2.42
[11]
  ELISA reading: 0.52
[12]
  ELISA reading: 3.12
[13]
  ELISA reading: 0.31

B3: 32B2 (antibody, V domains shown)
VH: EVQLLESGGGLVQPGGSLRLSCAASGFTFSNYAMSWVRQAPGKGLDWVSAISGRGGSTYYADSVKGRFTISRDNSKNTLFLLMNSLRAEDTAVYYCAKASGDDWGQGTLVTVSS
VL: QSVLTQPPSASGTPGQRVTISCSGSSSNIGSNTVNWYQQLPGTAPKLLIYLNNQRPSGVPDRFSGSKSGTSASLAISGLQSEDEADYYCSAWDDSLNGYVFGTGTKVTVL
notes: as for B1
[1]
  ELISA reading: 1.54
[2]
  ELISA reading: 6
[3]
  ELISA reading: 0.8
[4]
  ELISA reading: 6
[5]
  ELISA reading: 3.33
[6]
  ELISA reading: 0.42
[7]
  VEGF-E-mediated Survival % Inhibition (Average): -6%
  VEGF-E-mediated Survival % Inhibition (n = 1): -2%
  VEGF-E-mediated Survival % Inhibition (n = 2): -9%
[8]
  ELISA reading: 0.25
[9]
  ELISA reading: 0.86
[10]
  ELISA reading: 6
[11]
  ELISA reading: 2.9
[12]
  ELISA reading: 6
[13]
  ELISA reading: 1.69

B4: 32C11 (antibody, V domains shown)
VH: EVQLLESGGTLVQPGGSLRLSCAASGFTFSNYAMSWVRQAPGKGLEWVSAISGRAGSTYYADSVKGRFTISRDNSKNTLFLQMNSLRAEDTAVYYCAKASGDDWGQGTLVTVSS
VL: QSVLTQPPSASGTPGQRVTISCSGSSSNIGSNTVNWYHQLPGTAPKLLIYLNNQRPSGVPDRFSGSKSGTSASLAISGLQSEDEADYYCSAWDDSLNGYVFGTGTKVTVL
notes: as for B1
[1]
  ELISA reading: 0.27
[2]
  ELISA reading: 2.02
[3]
  ELISA reading: 0.14
[4]
  ELISA reading: 4.36
[5]
  ELISA reading: 0.82
[6]
  ELISA reading: 0.35
[7]
  VEGF-E-mediated Survival % Inhibition (Average): 6%
  VEGF-E-mediated Survival % Inhibition (n = 1): 5%
  VEGF-E-mediated Survival % Inhibition (n = 2): 7%
[8]
  ELISA reading: 0.2
[9]
  ELISA reading: 0.69
[10]
  ELISA reading: 4.28
[11]
  ELISA reading: 2.48
[12]
  ELISA reading: 6
[13]
  ELISA reading: 1.12

B5: 29A11 (antibody, V domains shown)
VH: EVQLLESGGGLVQPGGSLRLSCAASGFTFSNYAMNWVRQAPGKGLEWVSAISGGGGNTYYADSVKGRFTISRDNSKNTLYLQMNRLRAEDTAVYYCAKASGDDWGQGTLVTVSS
VL: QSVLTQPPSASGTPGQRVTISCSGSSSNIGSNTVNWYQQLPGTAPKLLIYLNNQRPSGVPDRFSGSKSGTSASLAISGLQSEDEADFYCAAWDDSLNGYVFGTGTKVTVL
notes: as for B1
[1]
  ELISA reading: 2.16
[2]
  ELISA reading: 5.09
[3]
  ELISA reading: 0.99
[4]
  ELISA reading: 4.66
[5]
  ELISA reading: 4.33
[6]
  ELISA reading: 0.59
[7]
  VEGF-E-mediated Survival % Inhibition (Average): 5%
  VEGF-E-mediated Survival % Inhibition (n = 1): 8%
  VEGF-E-mediated Survival % Inhibition (n = 2): 1%
[8]
  ELISA reading: 0.3
[9]
  ELISA reading: 1.05
[10]
  ELISA reading: 6
[11]
  ELISA reading: 3.43
[12]
  ELISA reading: 6
[13]
  ELISA reading: 1.9

B6: 30H10 (antibody, V domains shown)
VH: EVQLLESGGGLVQPGGSLRLSCAASGFTFSNYAMSWVRQAPGKGLEWVSAISGSGGITYYADSVKGRFTISRDNSKNTLFLQMNSLRAEDTAVYYCAKASGDNWGQGTLVSVSS
VL: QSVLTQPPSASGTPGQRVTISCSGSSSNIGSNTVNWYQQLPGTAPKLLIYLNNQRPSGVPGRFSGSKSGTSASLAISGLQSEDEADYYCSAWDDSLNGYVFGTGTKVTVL
notes: as for B1
[1]
  ELISA reading: 1.18
[2]
  ELISA reading: 4.61
[3]
  ELISA reading: 0.64
[4]
  ELISA reading: 4.42
[5]
  ELISA reading: 2.52
[6]
  ELISA reading: 0.31
[7]
  VEGF-E-mediated Survival % Inhibition (Average): -10%
  VEGF-E-mediated Survival % Inhibition (n = 1): -21%
  VEGF-E-mediated Survival % Inhibition (n = 2): 2%
[8]
  ELISA reading: 0.17
[9]
  ELISA reading: 0.52
[10]
  ELISA reading: 6
[11]
  ELISA reading: 2.21
[12]
  ELISA reading: 6
[13]
  ELISA reading: 1.18

B7: 30E3 (antibody, V domains shown)
VH: EVQLLESGGGLVQPGGSLRLSCAASGFTFSNYALSWVRQAPGKGLEWVSAISGSGRNTYYADSVKGRFTLSRDNSKNTLFLQMNSLRAEDTAVYYCAKASGDNWGQGTLVTVSS
VL: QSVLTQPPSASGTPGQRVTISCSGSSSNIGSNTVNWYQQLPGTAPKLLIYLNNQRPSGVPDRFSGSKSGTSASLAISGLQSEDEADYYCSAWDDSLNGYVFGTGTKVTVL
notes: as for B1
[1]
  ELISA reading: 0.32
[2]
  ELISA reading: 2.12
[3]
  ELISA reading: 0.18
[4]
  ELISA reading: 6
[5]
  ELISA reading: 0.86
[6]
  ELISA reading: 0.43
[7]
  VEGF-E-mediated Survival % Inhibition (Average): -14%
  VEGF-E-mediated Survival % Inhibition (n = 1): -21%
  VEGF-E-mediated Survival % Inhibition (n = 2): -7%
[8]
  ELISA reading: 0.24
[9]
  ELISA reading: 0.73
[10]
  ELISA reading: 4.45
[11]
  ELISA reading: 2.71
[12]
  ELISA reading: 4.78
[13]
  ELISA reading: 1.37

B8: 29F7 (antibody, V domains shown)
VH: QVQLVQSGAEVKKPGASVKVSCKASGYTFTSYDINWVRQATGQGLEWMGWMNPNSGKTGYAQKFQGRVTMTRSTSISTAYMELSSLRSEDTAVYYCARGGYSNLGWFDPWGQGTLVTVSS
VL: DIQMTQSPSSVFASVGDRVTITCRASQGISTWLAWYQQKPGKAPKFLIYAASSLQSGVPSRFSGSGSGTDFTLTISSLQPDDFATYYCQQANNFPFTFGPGTKVDIK
notes: as for B1
[1]
  ELISA reading: 0.57
[2]
  ELISA reading: 3.76
[3]
  ELISA reading: 0.22
[4]
  ELISA reading: 4.42
[5]
  ELISA reading: 1.68
[6]
  ELISA reading: 0.51
[7]
  VEGF-E-mediated Survival % Inhibition (Average): 11%
  VEGF-E-mediated Survival % Inhibition (n = 1): 15%
  VEGF-E-mediated Survival % Inhibition (n = 2): 6%
[8]
  ELISA reading: 0.25
[9]
  ELISA reading: 1
[10]
  ELISA reading: 4.26
[11]
  ELISA reading: 3.54
[12]
  ELISA reading: 4.49
[13]
  ELISA reading: 2.19

B9: 33D5 (antibody, V domains shown)
VH: QVQLVQSGAEVKKPGASVKVSCKASGYTFGSYDINWVRQATGQGLEWMGWMNPNSGNTGYAQKFQGRVTLTRNTSIRTVYMELSSLRSEDTAVYYCARGGYSNLGWFDPWGQGSLVTVSS
VL: DIQMTQSPSSVSVSVGDRVTITCRASQGISSWLAWYQQKPGKAPKLLIYAASSLQSGVPSRFSGSGSGTDFTLTISSLQPEDFATYYCQQANSFPFTFGPGTKVDIK
notes: as for B1
[1]
  ELISA reading: 1.7
[2]
  ELISA reading: 6
[3]
  ELISA reading: 0.87
[4]
  ELISA reading: 4.61
[5]
  ELISA reading: 3.65
[6]
  ELISA reading: 0.61
[7]
  VEGF-E-mediated Survival % Inhibition (Average): 0%
  VEGF-E-mediated Survival % Inhibition (n = 1): -2%
  VEGF-E-mediated Survival % Inhibition (n = 2): 2%
[8]
  ELISA reading: 0.33
[9]
  ELISA reading: 1.32
[10]
  ELISA reading: 4.78
[11]
  ELISA reading: 3.81
[12]
  ELISA reading: 4.56
[13]
  ELISA reading: 2.2
